In patent US20130122005A1 (published 2013):

Legend:
Assay in all cases: cell-based or functional assay
human IGF-2 [1] = target: T1, human IGF-2 (human, UniProt P01344 25-91)
human IGF-1 [2] = target: T2, human IGF-1 (human, UniProt P05019 49-118)
human IGF-2 [3] = target: T1, human IGF-2; remark: listed apart in the source
human IGF-2 [4] = target: T1, human IGF-2; remark: listed apart in the source
human IGF-1 [5] = target: T2, human IGF-1; remark: listed apart in the source

T1 sequence (P01344 25-91 limits assumed): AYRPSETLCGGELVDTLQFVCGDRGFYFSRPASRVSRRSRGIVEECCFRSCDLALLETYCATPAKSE
T2 sequence (P05019 49-118): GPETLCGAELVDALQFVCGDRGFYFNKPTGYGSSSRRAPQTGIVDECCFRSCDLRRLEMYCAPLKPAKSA

IC50, IGF-2 induced COLO 205 cell proliferation (human IGF-2 [1]) [µg/mL]	IC50, IGF-2 induced MCF7 cell proliferation (human IGF-2 [1]) [µg/mL]	IC50, IGF-1 induced COLO-205 cell proliferation (human IGF-1 [2]) [µg/mL]	IC50, IGF-1 induced MCF7 cell proliferation (human IGF-1 [2]) [µg/mL]	IC50, IGF-2 (100 ng/mL) induced IR-A phosphorylation, cell-based ELISA (human IGF-2 [3]) [µg/mL]	IC50, IGF-2 (100 ng/mL) induced IGF-1R phosphorylation, cell-based ELISA (human IGF-2 [4]) [µg/mL]	IC50, IGF-1 (20 ng/mL) induced IGF-1R phosphorylation, cell-based ELISA (human IGF-1 [5]) [µg/mL]	Binder
0.576	0.0782	0.135	0.0241	–	–	–	antibody 60814 (antibody, human IgG1, lambda, V domains shown) VH: QVELVESGGGLVQPGGSLRLSCAASGFTFSNYWMHWVRQAPGKGLEWVSGISGWSSWTYYADSVKGRFTISRDNSKNTLYLQMNSLRAEDTAVYYCARFGIDAYTKVYFDYWGQGTLVTVSS VL: DIELTQPPSVSVAPGQTARISCSGDNIPLKYVSWYQQKPGQAPVLVIHDDNKRPSGIPERFSGSNSGNTATLTISGTQAEDEADYYCSSWDTLDIFNVFGGGTKLTVLG
0.101	0.0408	0.217	0.054	–	–	–	antibody 60819 (antibody, human IgG1, lambda, V domains shown) VH: QVELVESGGGLVQPGGSLRLSCAASGFTFSNYWMHWVRQAPGKGLEWVSGISGWSSWTYYADSVKGRFTISRDNSKNTLYLQMNSLRAEDTAVYYCARFGIDAYTKVYFDYWGQGTLVTVSS VL: DIELTQPPSVSVAPGQTARISCSGDNIPLKYVSWYQQKPGQAPVLVIHDDNKRPSGIPERFSGSNSGNTATLTISGTQAEDEADYYCQSYDYFPKFVVFGGGTKLTVLG
0.632	0.0812	0.165	0.0386	0.82	1.12	0.09	antibody 60833 (antibody, human IgG1, lambda, V domains shown) VH: QVELVESGGGLVQPGGSLRLSCAASGFTFTSYWMSWVRQAPGKGLELVSSITSYGSFTYYADSVKGRFTISRDNSKNTLYLQMNSLRAEDTAVYYCARNMYTHFDSWGQGTLVTVSS VL: DIVLTQPPSVSGAPGQRVTISCSGSSSNIGSNSVSWYQQLPGTAPKLLIYDNSKRPSGVPDRFSGSKSGTSASLAITGLQSEDEADYYCQSRDTYGYYWVFGGGTKLTVLG
